Laboratory results taken from article PMC11321707.

What was measured:
[1] = 1H-15N HSQC NMR (signal loss and chemical shift perturbation upon self-assembly); R5 in phosphate-buffered solution, 50 mM Pi, pH 6.5, 25 °C; compared with R5 without Pi; details: other: 1H-15N HSQC NMR (signal loss and chemical shift perturbation upon self-assembly)
[2] = diffusion-ordered NMR spectroscopy (DOSY); R5 in the presence of Pi, 25 °C; hydrodynamic radius by Stokes-Einstein, spherical model; monomer to trimer; details: other: diffusion-ordered NMR spectroscopy (DOSY)
[3] = 1H-15N HSQC NMR (signal loss and chemical shift perturbation upon self-assembly); R5 in phosphate-buffered solution, 11.8 mM Pi, pH 6.5, 25 °C; compared with R5 without Pi; details: other: 1H-15N HSQC NMR (signal loss and chemical shift perturbation upon self-assembly)

R5 peptide
percent of the peptides outside the large self-assemblies, with Pi [1]: ≈0.7 and ≈0.01% of the peptides remained outside the large self‐assemblies | N with Pi [2]: an aggregate volume that fits three R5 units | percent of the peptides outside the large self-assemblies, with Pi [3]: ≈0.7 and ≈0.01% of the peptides remained outside the large self‐assemblies
